According to the supplement of paper PMC12764529:
± gives the half width of the 95% confidence interval.

test: folding stability dG unfold from chymotrypsin proteolysis; higher = more stable
Method in brief: (§1)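 How resistant each design was to proteolysis was captured as K50, inferred by Bayesian fitting of sequencing counts. Unfolding free energy was then derived relative to a sequence-predicted unfolded-state K50 and a shared folded-state K50, per protease or combined. Digestion used trypsin and chymotrypsin at 11 threefold-diluted concentrations plus a no-protease condition, on mini-proteins under 80 residues without cysteine in a PA-tagged cDNA display construct. Designs were kept only when AlphaFold2 dimer inter-PAE was above 15.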

Row | Sequence | folding stability dG unfold [kcal/mol]
1 | SAGGSAGGSAISIMIDDPDDLELAEEIANNIRDHFPDFPIKVEVERMPGNPDYYMIRVEWESAGGSAGGSAG [r3_131_TrROS] | 1.52 ± 0.042
2 | SAGGSAGGSMYLIRVTTEDNIELTFLVSEDDIEAFEAFAKALAELFPVPVKVEIEPVEEGEEVSAGGSAGGS [r12_385_TrMRF] | 3.74 ± 0.043
3 | SASMSPEELIEIEIELKRGNRNFTLKIKIPVGLSEEEIEEAIEKAKKELEEKVKKLEEEPPLNPENNLISAG [r14_70_JUSTAS] | 3.45 ± 0.06
4 | SAGGSAGGSAMIEDPATGRVYELDPSVPTVTVYEKTEGEGGEVVEKGVVEADPANPEKALLESAGGSAGGSA [r18_448_JUSTAS] | 0.826 ± 0.073
5 | SAGGNIEVDNDMIEIPFPGGFTIMIRLPPDKGKVTVHIERDPNNPMFREFAKEIADQLPGLPVEVHPWSAGG [r13_34_TrROS] | 0.414 ± 0.14
6 | SAGGPLQIKVEPLNRDPKDGKREVRIEITFPEEDMKKNPENRQLAEYIAKSLAKEPGADKVEVDIHWSAGGS [r16_416_TrROS] | 0.441 ± 0.081
7 | SAGGRIEIDPNSMQIKIYDAEDGEKVEIPINMPPGQIKEIELDPDGKISIRMPMWGQTQELPADDIKSAGGS [r16_410_TrROS] | 1.22 ± 0.023
8 | SAGGSFKIHWFDDPEAAEEAAKDMDPGKIIILPDPKNPKYYIVIVVKDKIFRYEIDNGNIKIEPIPSAGGSA [r2_280_TrROS] | 2.3 ± 0.029
9 | SAGGSAGGSAGGPKIVRIAGNPETGILIIEFENGEKKVIELKQEEADKLAKENPGVEVLTSAGGSAGGSAGG [r7_175_TrMRF] | 0.433 ± 0.056
10 | SAGGSALKNSTLRITVERGNVPFTVEVKLKSVVVDLESGKVDVELPEEFKKLFKGPVKILSLEIPDSAGGSA [r15_710_TrMRF] | 1.82 ± 0.11
11 | SAGGSAGGSAEELAKELAKKLPPGAKFKIEVKTEYYKTKDGKTVKKKVEIKIYNEDGEEVTSAGGSAGGSAG [r3_247_TrROS_Hall] | 1.1 ± 0.51
12 | SSIIIPGLPAEQARQLAKEFAEHYPNYDVKVEYHPDNGMITVDIEMPHKDPDGKPKGWRKMNINIHIWDPSA [r9_378_TrROS] | 1.53 ± 0.17
13 | SAGGSAGGSAGGDPNWVTVTIMIKVPPGDKPIEIEIPNGIKVEYYPFPDDGYLIFKITVRSAGGSAGGSAGG [r7_796_TrROS] | 3.11 ± 0.16
14 | EITIRNPNGMEVKKVEFDPPDSTIKFEFRMPDYYVKIEFQIYPVGGGWVIPIKIEIVPIPPTPAQRKKMQES [r1_154_TrROS] | 3.4 ± 0.17
15 | SAGGSAGGSAGAEITVEYNPETNVLTVTVKVEFTLPDGTKVERTYRATINADGTITIEPESAGGSAGGSAGG [r11_911_TrROS_Hall] | 5 ± 0.095
16 | SAGGSSMPLVKKEVDATRPDGSPLSFEEYLSSLKPNIRSEPIPNGKTVVTAPDPATGSTYTITIEESAGGSA [r2_234_JUSTAS] | -0.37 ± 0.14

test: folding stability dG unfold from trypsin proteolysis; higher = more stable
Method in brief: as §1

Row | Sequence | folding stability dG unfold [kcal/mol]
17 | SAGGMVLVRFDSLEEAREHAELLEELGYEVELLPTEDYVLLLVRPLPLPPPTPEELAEALRNPGSALASAGG [r13_8_TrMRF] | 2.33 ± 0.062
18 | SAGGSAGGSAGGMLKTKVTVDPTPDGVTRVTETTYDPSTGALVKTSTTIVVPGTGEVTAVSAGGSAGGSAGG [r7_804_JUSTAS] | -0.779 ± 0.18
19 | SAGGSAGGSAGDNKPKPIKIRIESYYPNGKKQEHDFEVPDPEDLDELAKTNPGYKIDEIESAGGSAGGSAGG [r11_802_TrROS] | -0.258 ± 0.057
20 | SAGKPKELAKKIAEKLAKEFEKKHPDVKIEKVEVKKIEVNPIEGYVKIDIVMYGKNGKLIYKPKITIKSAGG [r19_53_TrMRF] | 3.22 ± 0.27
21 | SAGGSKKPKKIIVIEIPENMTEEEIKKLAEELAKKLNIKKIVKIEKKKDGSVRIVLETKDGKKIEFSAGGSA [r2_168_TrROS_Hall] | 2.3 ± 0.089
22 | SAGGSAGGSAGGKFEIVEVKEEYTLPNGKKVKVFTVKNKDTGKEITFIVDSNGNLKPYPSAGGSAGGSAGGS [r10_1123_TrROS_Hall] | 2.72 ± 0.13
23 | SAGGSMTAPVKVLIKVPPNIPLSDIVKKLSAIPGIGAKPISYDPETGYALVDIGATDPEALKEAIGSAGGSA [r2_305_TrMRF] | 1.67 ± 0.057
24 | SAGGSIRELAKELAREFAEEHGIKEVEVKVEPYPNGWIKIEVSVEGPNGEPIGEWPIQIPIPPDQISAGGSA [r2_153_TrROS] | 0.199 ± 0.071
25 | SAGGSAGGSAPFQIEDIEVEYHRMPPGMPYYPVRARLPGTGREVEIHMPGMPVEDVLDRIIDSAGGSAGGSA [r18_345_TrROS] | -0.446 ± 0.13
26 | SAGGSMKITVTVSYSELKEKYPDLTEEELKELAEEIAKEKKKEIIEGNPDISENTEIEVKIEKPAVIESAGG [r13_634_JUSTAS] | 0.76 ± 0.11
27 | SAGGSAGGSAKPEAVAPAVFTLDGVPYLVPVRVLEAGLSPDQKLLVLGTLPNGEPFLAVFDASAGGSAGGSA [r18_54_TrMRF] | 0.744 ± 0.058
28 | SAGMKEGEVEKVEVEVEITIEVYNENGEKVKTFKAKVKVEVVRNENGELYVKAEIEFEDGTKFEFVVKLSAG [r5_580_TrROS_Hall] | 2.96 ± 0.35
29 | SAGGSAGGSAGDLLKEAVEEAKDSGHPNVPIRFNFPGGTIRITVKVDPKNGKVEIKVEPVSAGGSAGGSAGG [r17_475_TrROS] | 0.674 ± 0.12
30 | SLLENLKIEEIKEYTLPDGSPAIVIRFGDYTIVFNPGTGELRIYKGDKIIRTITIPFPIPDPNKPEDLAASA [r9_1065_TrMRF] | 3.22 ± 0.16
31 | SAGGMELFELEFEAEITPLEEPDKPVPVKIRILKRVEPVPNEPGFKVHYRALLENEEGVVPFEFTLDSAGGS [r16_300_TrMRF] | 0.998 ± 0.055
32 | SAGGSAGGSAISIMIDDPDDLELAEEIANNIRDHFPDFPIKVEVERMPGNPDYYMIRVEWESAGGSAGGSAG [r3_131_TrROS] | 1.79 ± 0.073

Row | Sequence | folding stability dG unfold [kcal/mol]
33 | SAGGSAGGSMYLIRVTTEDNIELTFLVSEDDIEAFEAFAKALAELFPVPVKVEIEPVEEGEEVSAGGSAGGS [r12_385_TrMRF] | 3.2 ± 0.16
34 | SASMSPEELIEIEIELKRGNRNFTLKIKIPVGLSEEEIEEAIEKAKKELEEKVKKLEEEPPLNPENNLISAG [r14_70_JUSTAS] | 2.33 ± 0.17
35 | SAGGSAGGSAMIEDPATGRVYELDPSVPTVTVYEKTEGEGGEVVEKGVVEADPANPEKALLESAGGSAGGSA [r18_448_JUSTAS] | 0.45 ± 0.048
36 | SAGGNIEVDNDMIEIPFPGGFTIMIRLPPDKGKVTVHIERDPNNPMFREFAKEIADQLPGLPVEVHPWSAGG [r13_34_TrROS] | 0.996 ± 0.11
37 | SAGGPLQIKVEPLNRDPKDGKREVRIEITFPEEDMKKNPENRQLAEYIAKSLAKEPGADKVEVDIHWSAGGS [r16_416_TrROS] | -0.0287 ± 0.056
38 | SAGGRIEIDPNSMQIKIYDAEDGEKVEIPINMPPGQIKEIELDPDGKISIRMPMWGQTQELPADDIKSAGGS [r16_410_TrROS] | -0.206 ± 0.061
39 | SAGGSFKIHWFDDPEAAEEAAKDMDPGKIIILPDPKNPKYYIVIVVKDKIFRYEIDNGNIKIEPIPSAGGSA [r2_280_TrROS] | 1.86 ± 0.072
40 | SAGGSAGGSAGGPKIVRIAGNPETGILIIEFENGEKKVIELKQEEADKLAKENPGVEVLTSAGGSAGGSAGG [r7_175_TrMRF] | 1.03 ± 0.059
41 | SAGGSALKNSTLRITVERGNVPFTVEVKLKSVVVDLESGKVDVELPEEFKKLFKGPVKILSLEIPDSAGGSA [r15_710_TrMRF] | 0.884 ± 0.057
42 | SAGGSAGGSAEELAKELAKKLPPGAKFKIEVKTEYYKTKDGKTVKKKVEIKIYNEDGEEVTSAGGSAGGSAG [r3_247_TrROS_Hall] | -0.0104 ± 0.19
43 | SSIIIPGLPAEQARQLAKEFAEHYPNYDVKVEYHPDNGMITVDIEMPHKDPDGKPKGWRKMNINIHIWDPSA [r9_378_TrROS] | 0.868 ± 0.12
44 | SAGGSAGGSAGGDPNWVTVTIMIKVPPGDKPIEIEIPNGIKVEYYPFPDDGYLIFKITVRSAGGSAGGSAGG [r7_796_TrROS] | 2.78 ± 0.16
45 | EITIRNPNGMEVKKVEFDPPDSTIKFEFRMPDYYVKIEFQIYPVGGGWVIPIKIEIVPIPPTPAQRKKMQES [r1_154_TrROS] | 1.44 ± 0.13
46 | SAGGSAGGSAGAEITVEYNPETNVLTVTVKVEFTLPDGTKVERTYRATINADGTITIEPESAGGSAGGSAGG [r11_911_TrROS_Hall] | 3.99 ± 0.27
47 | SAGGSSMPLVKKEVDATRPDGSPLSFEEYLSSLKPNIRSEPIPNGKTVVTAPDPATGSTYTITIEESAGGSA [r2_234_JUSTAS] | -1.31 ± 0.19
